Experimental data taken from paper PMC10359602, “High fidelity DNA strand-separation is the major specificity determinant in DNA methyltransferase CcrM’s catalytic mechanism”.

What was measured:
CcrM WT [1] = biological target: T1, CcrM WT (Caulobacter crescentus, UniProt P0CAW2 1-358); experiment: equilibrium Trp fluorescence; 60 uM sinefungin; smaller change than dsDNA; Anisotropy: 10 nM FAM-DNA, 0-1000 nM protein, 30 uM SAH, 100 mM HEPES, 1 mM EDTA, 20 mM NaCl, pH 8, room temperature, 20 min; Trp fluorescence: same buffer plus 2 mM DTT, 500 nM protein, 60 uM sinefungin, 5 uM DNA; details: protein: recombinant; chain copies: 2; single strand
T1 sequence (P0CAW2 whole entry): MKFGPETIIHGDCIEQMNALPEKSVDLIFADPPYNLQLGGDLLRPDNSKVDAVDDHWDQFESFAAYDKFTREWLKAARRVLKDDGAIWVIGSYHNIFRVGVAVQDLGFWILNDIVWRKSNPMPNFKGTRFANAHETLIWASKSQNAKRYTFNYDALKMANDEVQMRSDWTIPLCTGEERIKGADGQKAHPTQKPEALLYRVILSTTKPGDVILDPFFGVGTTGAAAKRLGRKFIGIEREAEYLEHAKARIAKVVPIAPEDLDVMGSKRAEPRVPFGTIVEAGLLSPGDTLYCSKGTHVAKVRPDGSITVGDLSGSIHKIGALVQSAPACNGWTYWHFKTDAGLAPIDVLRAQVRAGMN

CcrM WT [2] = biological target: T1, CcrM WT; experiment: fluorescence anisotropy; 30 uM SAH; Hill h = 2.5; apparent Kd; Anisotropy: 10 nM FAM-DNA, 0-1000 nM protein, 30 uM SAH, 100 mM HEPES, 1 mM EDTA, 20 mM NaCl, pH 8, room temperature, 20 min; Trp fluorescence: same buffer plus 2 mM DTT, 500 nM protein, 60 uM sinefungin, 5 uM DNA; details: protein: recombinant; chain copies: 2; label: 5' 6-FAM on strand 1; blunt
CcrM R350A = CcrM R350A (Caulobacter crescentus, UniProt P0CAW2 1-358, R350A); experiment: fluorescence anisotropy; 30 uM SAH; Hill h = 1.3; apparent Kd, above tested range 0-1000 nM; Anisotropy: 10 nM FAM-DNA, 0-1000 nM protein, 30 uM SAH, 100 mM HEPES, 1 mM EDTA, 20 mM NaCl, pH 8, room temperature, 20 min; Trp fluorescence: same buffer plus 2 mM DTT, 500 nM protein, 60 uM sinefungin, 5 uM DNA; details: protein: recombinant; chain copies: 2; label: 5' 6-FAM on strand 1; blunt
Chain of CcrM R350A (P0CAW2 whole entry R350A): as the sequence (P0CAW2 whole entry) above, with R350A counted along it

CcrM WT [3] = biological target: T1, CcrM WT; experiment: fluorescence anisotropy; 30 uM SAH; Hill h = 2.1; apparent Kd; Anisotropy: 10 nM FAM-DNA, 0-1000 nM protein, 30 uM SAH, 100 mM HEPES, 1 mM EDTA, 20 mM NaCl, pH 8, room temperature, 20 min; Trp fluorescence: same buffer plus 2 mM DTT, 500 nM protein, 60 uM sinefungin, 5 uM DNA; details: protein: recombinant; chain copies: 2; label: 5' 6-FAM on strand 1; blunt

**Q.** Does TCACTGTACTCTGACTCGCCTGACATGAC (ssDNA) [cognate ssDNA] bind (CcrM WT [1])?
**A.** binds

B1: C1-FAM (dsDNA)
DNA 1: TCACTGTACTCTGACTCGCCTGACATGAC
DNA 2: GTCATGTCAGGCGAGTCAGAGTACAGTGA
modifications: N6-methyl-A at position 14 (5' to 3') of strand 2 (hemimethylated)
**Q.** With B1 as the binder, how does the Kd (CcrM WT [2]) read?
**A.** 150 ± 5.4 nM

**Q.** What about the Kd (CcrM R350A) of the same binder?
**A.** 2110 ± 193 nM

B2: NC-FAM (dsDNA)
DNA 1: TCACTGTACTCTGACTGGCCTGACATGAC
DNA 2: GTCATGTCAGGCCAGTCAGAGTACAGTGA
modifications: N6-methyl-A at position 14 (5' to 3') of strand 2
**Q.** How did the Kd (CcrM WT [3]) turn out when B2 was run?
**A.** 135 ± 7.6 nM
